Assay results: the RNAGym collection of RNA variant scans (doi:10.7554/elife.90254)

B1: LINE1-full (parent)
chain: UACGUAGGUGGUUUUCCCCUGAUAGUGCUAAGGGGGCCUGGAAGUUUGGACUGGGCAGAGCUCAACACAGCGUGGCAAAGUGGCUGUGGCUAGACUGCCUCUCUGGAUUCCUCGUCACUCAGCAGGGCAUCUCUGAGAGAAAUGCC

Variants of: B1
Assay: self-cleavage, relative activity (ratio to wild type); higher = more cleavage; in vitro, sequencing; the parent is a self-cleaving ribozyme

Row | Variant | self-cleavage
1 | UACGUAGGUGGUUUUCCCCUGAUAGUGCUAAGGGGUCCUGGAUGUUUGGACUGGGCAGAGCUCAACACAGCGUGGCAAAGUGGCUGUGGCUAGACUGCCUCUCUGGAUUCCUCGUCACUCAGCAGGGCAUCUCUGAGAGAAAUGCC | 1.24
2 | UACGUAGGUGGUUUUCCCCUGAUAGUGCUAAGGGGUCCUGGAAGUUUGGACUGGGCAGAGCUCAACACGGCGUGGCAAAGUGGCUGUGGCUAGACUGCCUCUCUGGAUUCCUCGUCACUCAGCAGGGCAUCUCUGAGAGAAAUGCC | 0
3 | UACGUAGGUGGUUUUCCCCUGAUAGUGCUAAGGGGUCCUGGAAGUUUGGACUGGGCAGAGCUCAACACAGCGUGGCGAAGUGGCUGUGGCUAGACUGCCUCUCUGGAUUCCUCGUCACUCAGCAGGGCAUCUCUGAGAGAAAUGCC | 2.39
4 | UACGUAGGUGGUUUUCCCCUGAUAGUGCUAAGGGGUCCUGGAAGUUUGGACUGGGCAGAGCUCAACACAGCGUGGCAGAGUGGCUGUGGCUAGACUGCCUCUCUGGAUUCCUCGUCACUCAGCAGGGCAUCUCUGAGAGAAAUGCC | 1.5
5 | UACGUAGGUGGUUUUCCCCUGAUAGUGCUAAGGGGUCCUGGAAGUUUGGACUGGGCAGAGCUCAACACAGCGUGGCAAGGUGGCUGUGGCUAGACUGCCUCUCUGGAUUCCUCGUCACUCAGCAGGGCAUCUCUGAGAGAAAUGCC | 1.3
6 | UACGUAGGUGGUUUUCCCCUGAUAGUGCUAAGGGGUCCUGGAAGUUUGGACUGGGCAGAGCUCAACACAGCGUGGCAAAGUGGCUGUGGCUAGACUGCCUCUCUGGAUUCCUCGUCACUCAGCAGGGCAUCUCUGAGAGGAAUGCC | 1.18
7 | UACGUAGGUGGUUUUCCCCUGAUAGUGCUAAGGGGUCCUGGAAGUUUGGACUGGGCAGAGCUCAACACAGCGUGGCAAAGUGGCUGUGGCUAGACUGCCUCUCUGGAUUCCUCGUCACUCAGCAGGGCAUCUCUGAGAGAGAUGCC | 0.91
8 | UACGUAGGUGGUUUUCCCCUGAUAGUGCUAAGGGGUCCUGGAAGUUUGGACCGGGCAGAGCUCAACACAGCGUGGCAAAGUGGCUGUGGCUAGACUGCCUCUCUGGAUUCCUCGUCACUCAGCAGGGCAUCUCUGAGAGAAAUGCC | 1.19
9 | UACGUAGGUGGUUUUCCCCUGAUAGUGCUAAGGGGUCCUGGAAGUUUGGACUGGGCAGAGCCCAACACAGCGUGGCAAAGUGGCUGUGGCUAGACUGCCUCUCUGGAUUCCUCGUCACUCAGCAGGGCAUCUCUGAGAGAAAUGCC | 0.02
10 | UACGUAGGUGGUUUUCCCCUGAUAGUGCUAAGGGGUCCUGGAAGUUUGGACUGGGCAGAGCUCAACACAGCGUGGCAAAGUGGCUGUGGCUAGACCGCCUCUCUGGAUUCCUCGUCACUCAGCAGGGCAUCUCUGAGAGAAAUGCC | 0.07
11 | UACGUAGGUGGUUUUCCCCUGAUAGUGCUAAGGGGUCCUGGAAGUUUGGACUGGGCAGAGCUCAACACAGCGUGGCAAAGUGGCUGUGGCUAGACUGCCUCUCCGGAUUCCUCGUCACUCAGCAGGGCAUCUCUGAGAGAAAUGCC | 2.32
12 | UACGUAGGUGGUUUUCCCCUGAUAGUGCUAAGGGGGACUGGAAGUUUGGACUGGGCAGAGCUCAGCACAGCGUGGCAAAGUGGCUGUGGCUAGACUGCCUCUCUGGAUUCCUCGUCACUCAGCAGGGCAUCUCUGAGAGAAAUGCC | 0.01
13 | UACGUAGGUGGUUUUCCCCUGAUAGUGCUAAGGGGGACUGGAAGUUUGGACUGGGCAGAGCUCAACACAGCGUGGCAAAGUGGCUGUGGCUAGACUGCCUCUCUGGAUUCCUCGUCACUCAGCAGGGCAUCUCUGGGAGAAAUGCC | 1.04
14 | UACGUAGGUGGUUUUCCCCUGAUAGUGCUAAGGGGGACUUGAAGUUUGGACUGGGCAGAGCUCAACACAGCGUGGCAAAGUGGCUGUGGCUAGACUGCCUCUCUGGAUUCCUCGUCACUCAGCAGGGCAUCUCUGAGAGAAAUGCC | 1.04
15 | UACGUAGGUGGUUUUCCCCUGAUAGUGCUAAGGGGGACUGGAAGUUUGGACUGGGCAAAGCUCAACACAGCGUGGCAAAGUGGCUGUGGCUAGACUGCCUCUCUGGAUUCCUCGUCACUCAGCAGGGCAUCUCUGAGAGAAAUGCC | 0.03
16 | UACGUAGGUGGUUUUCCCCUGAUAGUGCUAAGGGGGACUGGAAGUUUGGACUGGGCAGAGCUCAACACAGCGUGGCAAAGUGGCUGUUGCUAGACUGCCUCUCUGGAUUCCUCGUCACUCAGCAGGGCAUCUCUGAGAGAAAUGCC | 0
17 | UACGUAGGUGGUUUUCCCCUGAUAGUGCUAAGGGGGACCGGAAGUUUGGACUGGGCAGAGCUCAACACAGCGUGGCAAAGUGGCUGUGGCUAGACUGCCUCUCUGGAUUCCUCGUCACUCAGCAGGGCAUCUCUGAGAGAAAUGCC | 1.35
18 | UACGUAGGUGGUUUUCCCCUGAUAGUGCUAAGGGGGACUGGAAGCUUGGACUGGGCAGAGCUCAACACAGCGUGGCAAAGUGGCUGUGGCUAGACUGCCUCUCUGGAUUCCUCGUCACUCAGCAGGGCAUCUCUGAGAGAAAUGCC | 1.01
19 | UACGUAGGUGGUUUUCCCCUGAUAGUGCUAAGGGGGACUGGAAGUUUGGACUGGGCAGAGCUCAACACAGCGUGGCAAAGUGGCUGGGGCUAGACUGCCUCUCUGGAUUCCUCGUCACUCAGCAGGGCAUCUCUGAGAGAAAUGCC | 0.12
20 | UACGUAGGUGGUUUUCCCCUGAUAGUGCUAAGGGGGACUGGAAGUUUGGACUGGGCAGAGCUCAACACAGCGUGGCAAAGUGGCUGUGGCCAGACUGCCUCUCUGGAUUCCUCGUCACUCAGCAGGGCAUCUCUGAGAGAAAUGCC | 0.41
